Five substances from US20020031799A1 can be followed below.

The target of series [1] is FVIIIa (activated factor VIII) (UniProt P00451). The series is described as follows: apparent Kd from FXa generation, as FIG. 1, in the presence of 100 nM hirudin.
The target is the same in series [2]. The series is described as follows: apparent Kd from FXa generation, as FIG. 1, in the absence of hirudin.
Series [3] shares this target. Briefly: apparent Kd; 0.1 nM FVIIIa titrated with 0-5 nM FIXa, 100 µM PSPC vesicles, 5 mM CaCl2; complex read by the initial rate of FXa generation, quadratic fit.
The target is the same in series [4].

Chain of UniProt P00451 (P00451 whole entry, looked up): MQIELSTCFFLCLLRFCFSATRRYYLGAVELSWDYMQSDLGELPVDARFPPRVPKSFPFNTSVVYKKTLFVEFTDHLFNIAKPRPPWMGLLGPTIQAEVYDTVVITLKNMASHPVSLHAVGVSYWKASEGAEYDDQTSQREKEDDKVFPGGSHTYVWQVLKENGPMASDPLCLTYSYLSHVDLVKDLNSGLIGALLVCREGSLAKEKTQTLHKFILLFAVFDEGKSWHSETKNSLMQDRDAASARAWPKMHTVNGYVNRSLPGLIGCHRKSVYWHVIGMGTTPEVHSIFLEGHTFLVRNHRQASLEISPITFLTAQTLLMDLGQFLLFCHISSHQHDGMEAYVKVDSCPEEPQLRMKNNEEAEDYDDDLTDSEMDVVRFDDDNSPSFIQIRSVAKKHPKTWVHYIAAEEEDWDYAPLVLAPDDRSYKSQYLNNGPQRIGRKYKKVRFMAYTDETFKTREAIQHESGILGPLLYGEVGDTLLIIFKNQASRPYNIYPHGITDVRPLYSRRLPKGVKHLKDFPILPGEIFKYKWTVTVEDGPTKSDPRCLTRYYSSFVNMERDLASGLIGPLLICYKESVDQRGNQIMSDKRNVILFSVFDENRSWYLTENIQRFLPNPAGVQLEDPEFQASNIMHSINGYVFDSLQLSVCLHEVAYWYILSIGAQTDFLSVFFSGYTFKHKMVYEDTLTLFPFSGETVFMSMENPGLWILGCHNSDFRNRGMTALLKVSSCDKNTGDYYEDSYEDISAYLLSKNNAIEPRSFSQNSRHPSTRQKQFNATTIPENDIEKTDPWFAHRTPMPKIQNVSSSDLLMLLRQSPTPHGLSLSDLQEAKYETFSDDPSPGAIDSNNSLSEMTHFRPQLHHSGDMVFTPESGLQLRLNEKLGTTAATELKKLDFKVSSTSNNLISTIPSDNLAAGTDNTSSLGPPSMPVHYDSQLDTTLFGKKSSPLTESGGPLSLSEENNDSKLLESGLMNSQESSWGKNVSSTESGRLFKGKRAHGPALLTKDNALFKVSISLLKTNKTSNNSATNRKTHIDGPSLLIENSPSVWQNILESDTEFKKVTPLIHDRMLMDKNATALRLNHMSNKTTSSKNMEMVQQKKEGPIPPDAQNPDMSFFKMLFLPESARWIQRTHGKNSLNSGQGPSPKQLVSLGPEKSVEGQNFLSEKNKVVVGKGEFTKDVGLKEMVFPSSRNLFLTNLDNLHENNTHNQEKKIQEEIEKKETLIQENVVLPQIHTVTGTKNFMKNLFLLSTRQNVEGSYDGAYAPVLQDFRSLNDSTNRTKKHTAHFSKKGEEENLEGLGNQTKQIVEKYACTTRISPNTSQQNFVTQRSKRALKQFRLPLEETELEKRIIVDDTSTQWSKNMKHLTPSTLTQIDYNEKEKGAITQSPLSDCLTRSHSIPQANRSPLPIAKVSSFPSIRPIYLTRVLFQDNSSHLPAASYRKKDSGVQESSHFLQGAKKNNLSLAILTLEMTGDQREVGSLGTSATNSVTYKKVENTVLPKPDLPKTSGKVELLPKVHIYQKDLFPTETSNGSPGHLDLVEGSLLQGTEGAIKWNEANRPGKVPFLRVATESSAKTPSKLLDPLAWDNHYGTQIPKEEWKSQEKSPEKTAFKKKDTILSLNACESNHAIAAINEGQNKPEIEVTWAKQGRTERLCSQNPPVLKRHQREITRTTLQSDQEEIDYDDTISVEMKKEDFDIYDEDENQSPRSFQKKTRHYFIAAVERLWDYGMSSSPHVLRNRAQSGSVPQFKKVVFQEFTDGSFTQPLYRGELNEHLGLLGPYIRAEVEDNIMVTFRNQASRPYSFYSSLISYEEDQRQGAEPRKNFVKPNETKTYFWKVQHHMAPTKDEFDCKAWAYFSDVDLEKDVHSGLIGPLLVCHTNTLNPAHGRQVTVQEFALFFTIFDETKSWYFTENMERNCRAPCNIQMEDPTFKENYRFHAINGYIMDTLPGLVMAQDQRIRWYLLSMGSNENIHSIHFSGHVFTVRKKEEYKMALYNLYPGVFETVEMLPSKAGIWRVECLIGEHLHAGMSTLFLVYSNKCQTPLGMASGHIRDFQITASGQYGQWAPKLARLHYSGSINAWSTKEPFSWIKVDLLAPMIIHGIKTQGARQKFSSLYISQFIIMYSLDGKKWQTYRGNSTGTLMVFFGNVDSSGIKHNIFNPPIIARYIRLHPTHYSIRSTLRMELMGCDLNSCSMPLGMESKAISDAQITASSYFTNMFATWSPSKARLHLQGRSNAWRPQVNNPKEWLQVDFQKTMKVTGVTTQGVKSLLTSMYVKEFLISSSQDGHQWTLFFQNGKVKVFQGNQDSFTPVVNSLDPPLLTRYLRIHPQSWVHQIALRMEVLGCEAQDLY

Take “recombinant wt-FIXa (activated recombinant wild type Factor IX) (from UniProt P00740 47-191; P00740 227-461) (enzyme)”: the values for the Kd in series [1] and in series [2] were 850 pM and 380 pM, respectively.

As to “plasma FIXa (activated purified normal human plasma Factor IX) (from UniProt P00740 47-191; P00740 227-461) (enzyme)”, the Kd in series [3] was found to be 1010 pM.

Turning to “recombinant wt-FIXa (activated recombinant wild type Factor IX)”, in series [4], the “Bmax, in the absence of hirudin” value is 1.27±0.12 nM FXa/min and the “Bmax, in the presence of 100 nM hirudin” value is on record as 1.35±0.15 nM FXa/min.

Take “R338A-FIXa (activated Factor IX with alanine at position 338)”: in series [4], the “Bmax, in the absence of hirudin” value came to 3.39±0.12 nM FXa/min; the “Bmax, in the presence of 100 nM hirudin” value was 3.38±0.19 nM FXa/min; the “maximum rate of FX cleavage (Bmax of FIG. 1)” value came out at 3.56±0.15 nM FXa/min.

Turning to “plasma FIXa (activated purified normal human plasma Factor IX)”, in series [4], the “maximum rate of FX cleavage (Bmax of FIG. 1)” value came to 1.30 ± 0.10 nM/min.
